Here are results for 1 molecule from patent publication US9486502B2, “Methods of administering interferon gamma to absorb fluid from the subretinal space” (The United States of America, as represented by the …, priority 2008, dated 2016).

The subject of one data set is hfRPE cells. As to the kind of experiment: cyclic AMP assay (cAMP-screen ELISA). The class given is cell-based, human. The note with it: IFNγ 0.5, 5, 50 ng/ml, all time points. As for the experimental part: Intracellular cAMP levels were assayed with a cAMP-screen ELISA system (Applied Biosystems) following the manufacturer's protocol. Briefly, confluent monolayers of hfRPE cells cultured in 24-well plates were starved in SFM for 4 hours and then treated with IFNγ (0.5, 5, and 50 ng/ml), forskolin (10 μM), or forskolin (10 μM) and isobutylmethylxanthine (IBMX; 0.5 mM) for 5 minutes, 30 minutes, 4 hours, 16 hours, or 24 hours. For some of the experiments, cells were treated with IBMX (0.5 mM) for 30 minutes, and then IFNγ or forskolin was added. Cells were lysed and the supernatant collected after centrifugation. Samples were incubated with anti-cAMP antibody and cAMP-AP in a 96-well assay plate; serial dilutions of cAMP served as standards. The plate was incubated with substrate and the chemiluminescence signal measured with a SpectraMax M2 microplate reader (Molecular Devices). The standard curve was obtained by best fit with a weighted 4-parameter logistic curve and the cAMP concentration was calculated and normalized with total protein concentration.

A further data set concerns hfRPE monolayers. Description: electrophysiology of hfRPE monolayers (TEP, RT, VA, VB, RA/RB). It counts as cell-based, human. The source says: Equivalent circuit analysis and electrophysiological methods have been previously described in Quinn, R. H., et al., Invest Ophthalmol Vis Sci, 1992, 33, 3513-3527; Joseph D. P., et al., J Physiol, 1991, 435, 439-463; and Maminishkis, A., et al., 2006, Ophthalmol Vis Sci, 47, 3612-3624each incorporated herein by reference in its entirety.
Briefly, confluent monolayers of cultured hfRPE were mounted on a nylon mesh support and clamped into a modified Üssing chamber that allowed the rapid exchange of Ringer's solution (≈10 chamber volumes per minute) and the measurement of fast electrical changes in seconds. The electrical connections to the apical and basal chambers were made with Ringer-agar bridges in series with calomel electrodes. Intracellular potentials were recorded with conventional microelectrodes, back-filled with 150 mM KCl, with resistances of 80 to 200 Ma The apical and basolateral membrane potentials (VA and VB) are calculated as the voltage differences between the intracellular microelectrode and the apical and basal bath electrodes, respectively. The resistances of the apical and basolateral membranes were designated RA and RB, respectively, and the transepithelial potential (TEP=VB-VA) is the voltage difference between the apical and basal bath electrodes. Epithelial resistance parameters were obtained by passing 4-μA bipolar current pulses (i) using Ag—AgCl electrodes, one located in the apical chamber and the other located in the basal chamber. The total transepithelial resistance (Rt) is calculated from the current-induced changes in TEP (Rt=ΔTEP/i). The apparent membrane resistance ratio (RA/RB) is calculated from the ratio of change in VA to change in VB (RA/RB=ΔVA/ΔVB).
The control Ringer's solution for measurements of TEP and Rt in culture hfRPE contained 116 mM NaCl, 5 mM KCl, 26.2 mM NaHCO3, 1 mM NaH2PO4, 1 mM Mg Cl2, 1.8 mM CaCl2, 10 mM glucose, and 2 mM Taurine. The osmolarity of control Ringer's solution was 295 mOsm. The solutions were maintained at 35° C. and a pH of 7.4, and were bubbled with 10% O2, 5% CO2 and 85% N2. 8-Bromo-cAMP (or Dibutyryl cAMP), 8-Br-cGMP, and forskolin were obtained from Sigma-Aldrich.

Data set [1] is described as follows: Phase I study of topical interferon gamma-1b in CME secondary to uveitis (OCT macular thickness). The class given is in vivo, human. The note with it: based on therapeutic treatment of topical IFNα. The source says: To test whether cystoid macular edema (CME), secondary to uveitis, is caused by the disequilibrium of the Jak/Stat and mTor signal transduction pathways in the retinal pigment epithelium (RPE), interferon gamma-1β topically applied in human patients. Five participants with CME secondary to uveitis receive a topical ocular instillation of interferon gamma-1b in a Phase I, non-randomized, prospective, uncontrolled, dose-escalation, single-center study. The study involves a one-time instillation or series of instillations of interferon gamma-1b on the cornea and measurement of a response with optical coherence tomography (OCT) over a three hour period.
A 25% decrease in macular thickness is observed at a post-instillation as compared to baseline. In the study, the first two participants receive one instillation (each instillation contains […] in 0.05 mL solution) on the cornea at time zero, the next two participants receive two instillations, 10 minutes apart, for a total dosage of 20 μg, and the final participant receives three instillations, 10 minutes apart, for a total of 30 μg. OCT will be obtained at −60 minutes, −30 minutes and just before the instillation(s). […]
Participants with CME secondary to uveitis are treated with ocular instillation(s) of interferon gamma-1b. […] The effect on the retinal thickness is measured using OCT measurements as indicated below. […]

[2] abbreviates: IFNγ 100 ng/ml apical and basal, FIG. 17A.
The mark [3] stands for this setting: IFNγ 500 ng/mL apical and basal, FIG. 22.

B1: IFNγ: pleiotropic cytokine produced by T- and NK-cells; obtained from Peprotech (protein, UniProt P01579 24-161, looked up)
Interferon gamma: QDPYVKEAENLKKYFNAGHSDVADNGTLFLGILKNWKEESDRKIMQSQIVSFYFKLFKNFKDDQSIQKSVETIKEDMNVKFFNSNKKKRDDFEKLTNYSVTDLNVQRKAIHELIQVMAELSPAAKTGKRKRSQMLFRG
For the molecule B1, the “effect on total intracellular cAMP” value in the data set with hfRPE cells is “no apparent effect”. Further, in the data set on hfRPE monolayers (setting [2]), the RT decrease is 15 Ω·cm^2 and the TEP increase amounted to 0.9 mV. Moreover, in the data set on hfRPE monolayers (setting [3]), the “depolarization of both VA and VB” value is listed as “approximately 2.5 mV”; the “increase in RA/RB” value worked out at 0.2; the “increase in TEP” value amounted to 0.3 mV. Moreover, in the data set with hfRPE monolayers (IFNγ, mean of experiments), the “ΔRT (decrease)” value is recorded as 17±2 Ω·cm^2 and the “ΔTEP (increase)” value is on record as 0.5±0.1 mV. For the same molecule, the “tolerability of topically applied IFNγ” value in data set [1] is “well-tolerated”.
